Source: the DeepSol protein solubility set

Assay: soluble on expression in E. coli; label from the status in PepcDB or PDB records

| Sequence | soluble on expression in E. coli |
| --- | --- |
| MFPEILNNEKLRLENIKKIYESSKSGYESAKQLYEQQVNNPEVSDEQKSENLEKLKESRGDLDNLQKKIVELQAKIENLSKLGGQQGNPFKKLF | not soluble |
| MQWQELYRQRVCSADEAVVDSLKPGTKVVFGHAAAAPVRFSQAMYRQREKLENITVFHMLYFGDAPHLAPEMRSHVHPTLNFLEGNSRPASRDRRVDFIPCHFHEVPELFRQGFFPLDVAVVQVSTPNEEGYCSFGVSCDYTKAAAECAPVVVAEVNKQMPFIGGENLIHISKLTHIIEVDEPIAEVLPPAISDLELRIGQNCASLIKDGDTLQLGIGGIPDAVLRALEGHKDLGIHTEMFTDGVMRMIRKGIINGKKKTLHPEKVVTSLIFGSKELYDFVNNNPVIECYPGDYINNPDVIGKNDRMVSINSCLEMDLMGQAASESIGYEQFSGSGGQVDFLRGAKRSKGGISIMAFPSTAKKGTESRIVPILKEGACVTTGRNEVDYVVTEYGVARLRGATLRQRAEALTAIAHPDFRPALEEEIRRRFELEHHHHHH | soluble |
| SAKFVIAGRADCPYYAKTELVADYLQKNLPDFRIHKITQRPEVWEDWLKDVCEKNKWSHKNSPIIWRELLDRGGKGLLLGGYNEFLEHAQLYYDVTSSMTTELMMVIAQENLGAHIEKEQEEEALKTCINPLQVWITSEWVKREFVAILKNLTTTGRQFGGILAAHSIATTLKYWYHGSPPGEIVSLGILSEGQFGIPKGIVFSMPVKFENGTWVVLTDLKDVEISEQIMTRMTSDLIQEKLVALGDKIHFQPYQSDTPRTNTLHPSIQSSWHSVLTITIRKR | soluble |
| MLGRGEGMRLEEARIAVDEALSAYRRCVEAEVEEYGPEYERVTFMEYEAPAPDPCAEAFLRLVEAVRAYEAAGGSREDLDLGRERKRVYEALDKG | soluble |
| MGHHHHHHGSTTQRNAQIAMGRKKFNMDPKKGIQFLIENDLLQSSPEDVAQFLYKGEGLNKTVIGDYLGERDDFNIKVLQAFVELHEFADLNLVQALRQFLWSFRLPGEAQKIDRMMEAFASRYCLCNPGVFQSTDTCYVLSFAIIMLNTSLHNHNVRDKPTAERFITMNRGINEGGDLPEELLRNLYESIKNEPFKIPEDDGNDLTHTFFNPDREGWLLKLGGRVKTWKRRWFILTDNCLYYFEYTTDKEPRGIIPLENLSIREVEDPRKPNCFELYNPSHKGQVIKACKTEADGRVVEGNHVVYRISAPSPEEKEEWMKSIKASISRDPFYDMLATRKRRIANKK | soluble |
| SFPGDYDNYLLEKEEMLRVEEMQNAEFDKKLAQEEVWIRQGIKARRTRNEGRVRALKKLREERRDRREVQGKVNLNIDDASRSGKIVF | not soluble |
| MVRPYGIKVNKRKEREERYDKEEDEVEEQPKFEQKQKARESSKKAKKESTSRAEEDNDEEEVTVEATAAAEDIVGGIPIVLNAPNKEKSGIVFVLEKASLEVAKVGKTYQLLNSDDHANFLKKNNRNPADYRPDITHQALLMILDSPVNKAGRLKAVYVRTEKGVLFEVKPHVRIPRTFKRFAGIMLQLLQKLSITAVNSREKLLRCVKNPIEEHHLPVNSHRIGFSHSSEKLVNMQKHLATVCDDDRDTVFVVGAMAHGKIDCNYIDEFVSVSEYPLSAAYCISRICEALATNWNII | soluble |
| MGSSHHHHHHSSGLVPRGSHMLLREVTREERKNFYTNEWKVKDIPDFIVKTLELREFGFDHSGEGPSDRKNQYTDIRDLEDYIRATAPYAVYSSVALYEKPQEMEGWLGTELVFDIDAKDLPLRRCEHEPGTVCPICLNDAKEIVRDTVIILREELGFNDIHIIYSGRGYHIRVLDEWALKLDSKSRERILSFVSASEIEDVEEFRKLLLNKRGWFVLNHGYPRAFRLRFGYFILRIKLPHLINAGIRKSIAKSILKSKEEIYEEFVRKAILAAFPQGVGIESLAKLFALSTRFSKSYFDGRVTVDLKRILRLPSTLHSKVGLIAKYVGTNERDVMRFNPFKHAVPKFRKEEVKVEYKKFLESLGT | soluble |
| SLASELHQTQVDLDGLLEVLGRNLYSTPAVAIRELIQNAHDACVRSRLETGRDGDFSIRIQADSHRNQIVITDNGSGLTYEEVLKYLATIGSGYTRVLRDSSHNEDMVGYFGLGFLSAYVVAEKVEVWTTSYQTPEQTWYFSTAGGKKFAISATAPAQVGTTVKLHLREEFYHLAESDLLQGLIERYCCLLRVPIFLNNDDVQVNNLVAPWRLDAATSELQRKKRRLEFAAIFEGAFEPLCAIPIPENNPWSLKGLLWVQDRGGYATSDYRNISVFVRSMFITGECRELLPLWAGFAGGVVESVALSPTASREDIQKNERFYEIRDFLAETLIEGLRTIAANESSVWRRILSRHNQTLLGAALSDDRLFEVMQNDLKIPTTIGDVTLPAYLKQSGGVIYIRNEDKNSQEELLFRAQMKPLVSGYLYAASGFCQKYAHWNHLKAHILGSGDGETKLFTEETVDKAIHDKLAALLLRKNEALSCARFEPAHVPLLVIHDQDVALKKRIERDEADKRIGSAALSLARLHTQAISAEIERRLYVNLNSPLIAAMIDGTQEAAGHLAVAVRAYMESLTHQVDDSDSNFSDELKRFSDALLAITKGEEG | soluble |
| MIFYLLPSEKKQSTMDLVKEDYFSIWENREKNRFPELNPYRKELIEYFKVETKPLAPAWRRYNGKFWDSLEFWCLPPEVQQNIIDRGIIISPLFGMLGVNDPIPRYSVTFQDKYKGKKLTEFWKEVLKDISKKMFESSVIFDFLTTEQRETLTFPEDVTFVRFDYIRKGKKVVNPMPHRAYTLRYIVEKNVDLNSLEKINFYDYKVSKIEKEGNVIRVIMESEGRYI | not soluble |
| MGSDKIHHHHHHMSNSLKASTTGLGIVDKARKRLGWTKTSTACWWQDAHTSRATLRRFWQGDRIQQEIFIAICQAVGINDWQNIAEIPNADFEETSTQYLDWDDAPDLESFYGRNQELAQLEEWILGDRCKLIIITGIAGIGKTALALALADLLQLKFDGLIWKTLHSVPSLVPLLDGLLHTFKQTPVDDIPSDTAKLIHHLQQRRCLLILDGLDESEKHYHQFIQQLSRAHHQSCIILTSREQPNIIESNTKTVRSLTLTGLPKDDAVKLLQARGFTGKEIGLSPLIQLYRGNPLALKLVTPLIQSVFGGNIAAFLSQNTIVIGDRLRAILKQQFEQLSDLEQNILYWLAIWQQPISFSRLQTHLLISLDPATVLDAIVSLERRSLLEKWICSDAPAFTLQPLVMKIATDELVERATQEIIQVMQSRDIADFKVLRTHWLLRPGSDDIVGDRILHQLQEKLWQIYGANLVQNLQQILLLLNDKSPLTIGYIACNITTIITKGV | not soluble |
| MQRLFRQKMIINSLGTSPTSVDTLVELTGASPATIRRDLTDLEGHGQLRKVHGGAVAVNLRGTPMPYSLRSAENAESKTAIAQLVSRLVTDDMSVIIDNGSTMVAVAQALQERPITALCLSLRAALPLGEGGVATVSTPDGTLMPESLRYAAASCLRALGEFRADVAIVGTCSASPAMGLTVTTHQDAQVKRAILASSARVVLAATGDKLSRTSSFRFGDIEDIDDLVTTRDAPQVTLDAFRVAGSRVYVADLEHHHHHH | soluble |
| TDPDFLIRLATNLKEEKSKRLEAEQKIEAQRPKVLFADAVSDTEGTILIRDLAKLIQQNGVDIGEKRLFEWLRQNGYLISRRGTDYNRPTQKSMELGLFKIKETAIMRSSGAHTAITAKVTGKGQLYFVNKFLEQSLV | not soluble |
| MPSVPRVDRLKPIYTAAKALNFGWRFSDFLKIPAYNGISRYTNQLHRITVRFCKQSESSVGVRNFIENQLVEIGRKNPSVVIYAQPVRNSNPSIRAEYGNGRTLQINAKNMTQDEVSKDVHLLFSRSGEPVVKLESRQSALVPSIQGQWTPITWLPTEMNTEQLPAKQFSKHKSTATSATEYILQNPPK | not soluble |
| PLGSMPFHAEPLKPSDEIDMDLGHSVAAQKFKEIREVLEGNRYWARKVTSEEPEFMAEQVKGQAPNFLWIGCADSRVPEVTIMARKPGDVFVQRNVANQFKPEDDSSQALLNYAIMNVGVTHVMVVGHTGCGGCIAAFDQPLPTEENPGGTPLVRYLEPIIRLKHSLPEGSDVNDLIKENVKMAVKNVVNSPTIQGAWEQARKGEFREVFVHGWLYDLSTGNIVDLNVTQGPHPFVDDRVPRA | soluble |
| MSLDASDDSLIGRITEVRAGRFAARLLSDEEGFRNEVSLGDEVQHPGQVGTYVSIRNGTFRILALVREVSGGAAGSAAGSAMQLVPLGEFNDKGAFSRGVRRYPVPGAEVHAASPQEINAVFARTRNLRFNPGYLPNHPATGVYLDPSALCSRHFAILGQSGAGKSWTVASLLQRMLASAPRAHIILLDLHGEYCWRGADGVLHSTFPPMATRAMDARELEIPYWLMSFAELVDLLIERDDPAASIQTAFLRETVFELKRRSARELGLEGVSIDAPVYFSLQEVYERFKEANEHRTDFGKTKGPLFGQFDDFLLKLGSRLHDVRYDFLLNPARRTRSESLPDLLRDFVGLGEPRCQISVIDLSPVPFDVRPTVSAQIGRLAFEFNYWNLDRREFPILLVCEEAHTYIPRERATQYEGTRKSMERIAKEGRKYGVGLAVVSQRPHELSETVLSQCGSYICLRISNPDDQAYVRKLVPEGEADLVDVLTALGRGEALILGEATPLPVRCQIFRPDEGHHHHHH | not soluble |
| MGSDKIHHHHHHMQWTEEQLPAIHSFAKKLLVQAFAGTGKTTTLVGYATHNSSVKMLYLCYNKAVEIAAKNRFPRNVTCKTAHGLAYAVYGSQYKHKQAGNLRLTDIARTINTQDWELAKDIVSTLNAFMASKDLELLEDHFVRFQSNRTLTSVQQQYMSKALNLTRDVWDKMVDIQDRSVSMTHDGYLKLYQMSQPDLSQRFGAILLDEGQDVNPVIANLVQIQKITQVTVGDRHQQLYRFRGAVDALNSPAMKDAEKHFLTQSFRFGPAVAYVANVILSFKGEKIPLQGLGQPTLVKRALPEDLPHRTYLHRTVSGVIENALRLVNQDHRMQWIGGIDSYSLRDLEDLFYFSRHMNDQVQQRKLLTDYADYDQYVVIAKATQDPEMLRSIKMIENYPDLPKRIEQLRGASVTSELDATVTLSTAHRAKGLEWDFVGLYDDFSADPLSPDIDAGKRDDELNLLYVAVTRAMKILAVNSLVIDIMQRFKDMKQRSRP | not soluble |
| MTENAEKFLWGVATSAYQIEGATQEDGRGPSIWDAFAQRPGAIRDGSTGEPACDHYRRYEEDIALMQSLGVRAYRFSVAWPRILPEGRGRINPKGLAFYDRLVDRLLASGITPFLTLYHWDLPLALEERGGWRSRETAFAFAEYAEAVARALADRVPFFATLNEPWCSAFLGHWTGEHAPGLRNLEAALRAAHHLLLGHGLAVEALRAAGARRVGIVLNFAPAYGEDPEAVDVADRYHNRFFLDPILGKGYPESPFRDPPPVPILSRDLELVARPLDFLGVNYYAPVRVAPGTGTLPVRYLPPEGPATAMGWEVYPEGLYHLLKRLGREVPWPLYVTENGAAYPDLWTGEAVVEDPERVAYLEAHVEAALRAREEGVDLRGYFVWSLMDNFEWAFGYTRRFGLYYVDFPSQRRIPKRSALWYRERIARAQT | soluble |
| MGSDKIHHHHHHMKKKYVTIRDIAEKAGVSINTVSRALNNKPDISEETRRKILKIAQELGYVKNATASSLRSKQTNIVGVIIADSANPFYAEVLKGIEAASRKYGYQIMLMNTERIYENEEKAIEVLLQRRVDGLLITPVQDRSDDIKTLIERKVPFVIVGRHFEELEVDEIHSDEVKGGYLATRHLIERGRKNIIMISGYLFKSAAYMRLEGYRKALKEYGIPFSEKMIIETDIDIESGYRAMREAIEKGLEFEAVFCYNDLLAFGVIKALKECGYRIPEDVAVVGYDDIVYSSFICPSLTTVRIKKFEMGFEAFRMLLQRLKGRRKKRKRVILDVELVVRESG | not soluble |
